In IntAct's records for PubMed 16469698:

B1: Transcription-repair-coupling factor (Escherichia coli (strain K12)), P30958 (parent)
chain: MPEQYRYTLPVKAGEQRLLGELTGAACATLVAEIAERHAGPVVLIAPDMQNALRLHDEISQFTDQMVMNLADWETLPYDSFSPHQDIISSRLSTLYQLPTMQRGVLIVPVNTLMQRVCPHSFLHGHALVMKKGQRLSRDALRTQLDSAGYRHVDQVMEHGEYATRGALLDLFPMGSELPYRLDFFDDEIDSLRVFDVDSQRTLEEVEAINLLPAHEFPTDKAAIELFRSQWRDTFEVKRDPEHIYQQVSKGTLPAGIEYWQPLFFSEPLPPLFSYFPANTLLVNTGDLETSAERFQADTLARFENRGVDPMRPLLPPQSLWLRVDELFSELKNWPRVQLKTEHLPTKAANANLGFQKLPDLAVQAQQKAPLDALRKFLETFDGPVVFSVESEGRREALGELLARIKIAPQRIMRLDEASDRGRYLMIGAAEHGFVDTVRNLALICESDLLGERVARRRQDSRRTINPDTLIRNLAELHIGQPVVHLEHGVGRYAGMTTLEAGGITGEYLMLTYANDAKLYVPVSSLHLISRYAGGAEENAPLHKLGGDAWSRARQKAAEKVRDVAAELLDIYAQRAAKEGFAFKHDREQYQLFCDSFPFETTPDQAQAINAVLSDMCQPLAMDRLVCGDVGFGKTEVAMRAAFLAVDNHKQVAVLVPTTLLAQQHYDNFRDRFANWPVRIEMISRFRSAKEQTQILAEVAEGKIDILIGTHKLLQSDVKFKDLGLLIVDEEHRFGVRHKERIKAMRANVDILTLTATPIPRTLNMAMSGMRDLSIIATPPARRLAVKTFVREYDSMVVREAILREILRGGQVYYLYNDVENIQKAAERLAELVPEARIAIGHGQMRERELERVMNDFHHQRFNVLVCTTIIETGIDIPTANTIIIERADHFGLAQLHQLRGRVGRSHHQAYAWLLTPHPKAMTTDAQKRLEAIASLEDLGAGFALATHDLEIRGAGELLGEEQSGSMETIGFSLYMELLENAVDALKAGREPSLEDLTSQQTEVELRMPSLLPDDFIPDVNTRLSFYKRIASAKTENELEEIKVELIDRFGLLPDPARTLLDIARLRQQAQKLGIRKLEGNEKGGVIEFAEKNHVNPAWLIGLLQKQPQHYRLDGPTRLKFIQDLSERKTRIEWVRQFMRELEENAIA

Variants of: B1
Settings: with rpob_ecoli rpoB

effect of a mutation on the interaction | Variant
decreasing interaction | L499R
